Here are results for 21 sequences from the DeepSol protein solubility set.

This data set in a line: soluble on expression in E. coli; label from the status in PepcDB or PDB records.
With “MSLSLALQYFKALSDETRLRLIHVLNRHELSVNELVSILEMGQSRVSRHLKILTGAGLLTSRRDGLWVFYSAAAEGDGRAFLDAVTPFVTTDMVLQADLDMAQKIIEERALKTRQFFNAIAEDWDELNREVLGGFDLAGAVAEAMPQCETAVDLGCGTGSVIERMLQRSQQVIGVDGSPRMLELARRRFVEGAERVSLRIGELDHLPLRDGEADFASINMVLHHLSDPGVALGEIRRVLRLGGQLMVTDFDRHDNERMRSDYGDRWLGFEGVQLEGLLREAGFTVRECRRQGVAKGLALHLMLAEKTQEGHHHHHH”, the “soluble on expression in E. coli” value was “soluble”. As to “VTVGDQNGMGPSSGYVTRITNDAREDDMENNMKEVSSMIGNLRNMAIDMGNEIGSQNRQVDRIQQKAESNESRIDEANKKATKLLKN”, the “soluble on expression in E. coli” value was “soluble”. As for “MNKVKILAIVGSLRKGSYNRQLALAAKEIVKDTADFTLLDYQDVPLMNEDIEYPAPDAVKRVREEVKAADGIWFFTPEYNHFFPGVLKNLIDWLSRPVSENEPQVLAGKPAAISGISLGMSGTAIAQDHLVTLISFLDMKVMNVPRVTVPNAWQYVDDQGKLIMESIYPHLEKQAKAFVNFIQAKCL”, the “soluble on expression in E. coli” value was “not soluble”.

“MMNYNTPKVSIVVPSLNSISYIRECIDSILNQTLKDIEILCIDANSTDGTLEVLKNYEKKDKRLRVIISDKKSYGYQMNLGIKEAKGEYLGIVESDDYIKTNMYERLYEIAKKNDCEVVKGDFYIFAYGKTEYVNVLRNSCEDIYNYKVNWNKDIRIFLGSDGINPIGIYRLDLLRTNQIKLNETPGASYQDNGLWFQIFALAKSIYFINEAFYMLRRDNPNSSVKSKEKVYCACEEYDFIRDFLKKHPDLEKTLAPICALHRFGNYMFTLERIDERYKLDFLKRFSQDFRKILKDKELDENLFGNINMQRINKIIENPVIYYYFSRGARARLQNQLVYRLGKVVVEAKSFNKIIKLPFLMLKICLEHNFEHKVYRSIVQFRPDLKLLPLECYLDYHEALVIKEHLSYKFGKLILLSFKGWYKGKIFILPFMLKKRYKEYKNKMILEHHHHHH”: the “soluble on expression in E. coli” value was “not soluble”. With “MAQEFSGDVFVISVAAELAGMHAQTLRTYDRLGLVTPQRTRGGGRRYSRDDVELLRTVQHLSQVEGVNLAGIKSIIELKKENAQLRKELAAARAEADVLKNRGARPRGEIVHVPRSTAVVMWQPRRSSRQHD”, the “soluble on expression in E. coli” value is “not soluble”. For “MSLKLIVKIGLIVLLLMFNYQGVDADVVSSAIDRYATTTEHQDNMASDHGTLDTMSFTHSLLTGQQQVLAKLMPDDLRIRRAEELQQNFLKILIGRFSLREEILATDRAKIFPSNPIHCVSPACHYFVFTLRRILIEGHHHHHH” the value was “not soluble”. The same measure for “MWRTEMRKFLVVLDDSRECLNAMRFAAMRAAHTGGGVAILSIIPPDEFNHWIGVGEVMREEARERIHAHFEVFAKWMRDKQGVEPELVIREGEAVPEIIAHVQEDPEIGVLVLGAGTDKKGPGPLVSQLSRSSGSLPIPITIVPGDLSKEKLEAIT”: “not soluble”; for “MGSDKIHHHHHHMVIELKNEKVTVQFKEFGGALSSIKDQDGIEYLWQGNPAYWSSQAPVLFPICGSLRNDKGIYTSKKHSHRYGSIPRHGLVRKKNFRFEQLGKDSVVFTITPDKEMLMQYPYHFELKIIYTLKHTTIRTEYQVINKEKESIMPYFIGGHPGLNCPLFAGDRYEDYYLEFEKEETCTVPKSFPDTGLLDLQDRKIFLKGQKYLDLDYSLFTHDAITLDNLQSRSVSLRSKNHGGGLRLDFADFPYLILWSTANKSPFIALEPWSGLSTAVDESDYFEEKRNVSFVEPGQFDRNYFDITVL”: “not soluble”.

Regarding “MATAFTHSGKFHADDVFSAALLLYLNPEITITRGNRVPEDFDGIVFDIGRGRYDHHQKDSRVRENGIAYAAFGLLWEELGSEILGEELAQKFDEAFVQPLDNNDNTGEKNELASLIGNFNPTWDAEGSNDEAFFQAVSVAGMILENKFDRYRGNERADKRVEEIYERHMQAFHDREKHSEDAKILILPEFVPCQKFLSETPVAFVIFPSNRGGYCIQPQKKEYSMNYKCSFPSEWLGLENEELQEVTGLKTAGFCHKGGFLMTTGELADAVQACKISMEQFREKPVIVSFGGDTEYDELLHQIPKLQAAEIIHIDIQPLPEVEIQGIYAEVSMEKQEWKARIKEQVKQILKYKPEAVFVGENLFVAYPIVHALRKKHIPVLVPAEKDGQKLLIRIPSGSLEHHHHHH”, the “soluble on expression in E. coli” value is “soluble”. For “MAEILERSGYLVKVRVEVPADRVKASYEALLKDLASRVRVPGFRPGKAPLKVVEARLGREALLQDLKERLVEETYPEAVRELGLSPVAARVVEQDLSEGEGFRYVAEVENYPEVRLPDWRSFALEVSPPEVTEEMVEKALEELRQRYAELVPVEREAQEKDHLFVRTEEGAEFPIDLAKALPHVREALLGKKAGDVVMVPVLNDKGEKVREVRTEVLEVKTLKLPELDEEFAKTLEAESLEDLKNRVRESLKRQAERAYEEARERAFLEKLAEGLEVEIPPSMLRAEERHLLEHLAEDLYRQGISLEAYLEALKEKGELEKFQEDLRKEAEKRVRIALAREKLAEELNPEVSEEEWQAYLQAAARAYGVAVQDLRRQFGEEGLARLKERLRQDKAVQEALKALG” the value was “soluble”; for “MGSDKIHHHHHHMKHESTKIPLVIFMHIPKTGGITLRNILDQQYRSEHILRLPQKNKLDNLLQKKGANIKKLQCVYGHHRFGVHEYFQQPFTYITMLRHPVERIISTYYFILQNERNRMHQKVKPLTFEQFVQSTDPDLQVPLTNHQTRYLSGERKPNLNKALQHMDTHFSVVGITELYNESLFIMKKKLGWDHISYQKKNVTYYRYRQTDIGLDTIEIIKRKNPLDLHLYETAKEKLQEHIKRLDSGARKELQQFLQDQNGFGPHG”, “not soluble”. In the case of “MIGNVKMEYASASEEYLTESEMDEYLDDLRSKIPSFIVELLKNNLKNRKLTRPQLDKIVGRVSDLYFGKKPEDKKAAELTNKINDLSQKLDALMKVATISSATKVSDDIKKELNYLDDEKIEVPEISKAVEVPEIIEEPEISIEPVEEPVVEPVKIIEKQTVEPIIEFKEEPKIEKVVSKVPLEIEEGNNMRPELTPAVETTARLQELPEDTLSTMLVFKWLEFLISRVGTGNLIDVLDYYHNLGWVSGKAISKLMKVSKNMKYFHEDIDWKANECMAPEDHVVSLLYIEKLAGRPIAVEELEGMEREINRIKKWAEELQKM”, the “soluble on expression in E. coli” value was “not soluble”. For “MAHHHHHHMNTNGRSAYDMLARMSDEEDDDVPEDLELTFVPASKRREPASSHAVGHHAGNAVPSTLNSPTHSGPAVINPKPRAETVYEQERNAKVRQVLAEQQKTALGVVFSLDAFEAPSPGRYTLAGLQEATGTPAPSCSSAPYNREDQRRGFSQYRGRGGAEGGGRGGPGGGGGPRRYRMPNPNMSGEEQARYIRHRRNMAVIRNALREVDPETLEYMQVTQAPDQLPLNRNCEGFSKPYFSTDRGRGGVDAGGGRSTSSYRGRGGGGGMHGRGGRGFSPYSVGRGTGATRGDGLGRGAGGGCGRSAPFSPYS” the value was “not soluble”; for “MKELIRKLTEAFGPSGREEEVRSIILEELEGHIDGHRIDGLGNLIVWKGSGEKKVILDAHIDEIGVVVTNVDDKGFLTIEPVGGVSPYMLLGKRIRFENGTIGVVGMEGETTEERQENVRKLSFDKLFIDIGANSREEAQKMCPIGSFGVYDSGFVEVSGKYVSKAMDDRIGCAVIVEVFKRIKPAVTLYGVFSVQEEVGLVGASVAGYGVPADEAIAIDVTDSADTPKAIKRHAMRLSGGPALKVKDRASISSKRILENLIEIAEKFDIKYQMEVLTFGGTNAMGYQRTREGIPSATVSIPTRYVHSPSEMIAPDDVEATVDLLIRYLGA”, “not soluble”.

Consider “GPGSMDGFRLYMEGISLPEGSMRRANAELIGAINSPDPMVQHSGLQMLCDQLTMSSFISPSTMTTIPLVLPSLLRCIASSQVREVFITAARALTYIIDAFPRTFETFPTRDTLIEVLLQHLRSIQDVELSEQCITCLEMITRSQTGSRELLHNNGVEAVLGFADFFTLHKQRQIWTIVQRLVGEVDESSVQHITACLPTLRIGMTNGDSEIRQKAIATLAQAIEGVKTDRAIVETVFGDAADRIAVLLHERDVNDDTLSSALSLLYAGVQWSAGIAASVIQSDLLNTLLSLLQSTPVPAVVAEQHTAPSAGAGRVARRSAAAELVVGRDSTTDSGGGAGTEPAAARTTMLTSHQRTIVCRLLASLLIPCRTGAAEQLERLEMLTQRPLLTGARAHGKPVGHGRRR”, for which the “soluble on expression in E. coli” value is reported as “not soluble”. For “MGSDKIHHHHHHMKEKVFRDPVHNYIPVEDELIYDLINSKEFQRLRRIKQLGSSSFTFHGAEHSRFSHCLGVYYLARRVTNIFDKKYSDIWNSNESLLTMTAALLHDIGHGAYSHTFERLFDTNHETITQQIILSPETEINTILRRVSPDFPDKVASVINHTYSNKQVEQLISSQIDVDRMDYLLRDSYFTGASYGEFDLTRVLRVIRPIENGIAFSRDGMHAVEDYIISRYQMYMQVYFHPASRAMEVLLQNLLKRAKYLYPKEKEFFTVTSPHLIPFFENRVTLEDYLSLDDGVMNTYFQTWMQSADKILSDLASRFINRKVFKSITFDEKDLSNLEKLRKIVKDLGFDPTYYTALHLNFDLPYDVYKPDVQNPRTQIEMLQEDGSIAELSTLSPLVHTLSGTTHGDRRFYFPKEMLIKDGLFVEAKEKFSHYIKNKHFYNLRE” the value was “not soluble”; for “MSLYDTILFPTDGSNAAESVLEYALQIASEHEATIHILNVADTGRDSVTTIRGEVIDVLETEGERIVAEATQYAKDEGVPVVSAVLQGDPHKTIVDYSQQSDSDCIVMPTHGQRGIQRILLGSVTERVINTAEVPVIAVNPDRDRPLVYPPQHVLVPTDGSRGADLALTEGIAVARATDATLHLLHVVETGGLGPDARSVLKEGELTERANEIMAGATEKIDDTSLDTVTSVIEHGDPSKVICDYIDENEVDLAVMGTHGQTDFSRYVMGGVSAKLVRKSPVPVTWVREPESEGHHHHHH”, “soluble”; for “MTYIAPEESAFGVGFFERLEANAKPMSLTRGPDAWDVLESIKRNVSNILNTRIGGAQSAPHLGLVDFNDATLETLDLSVRIKLAIQQCLERYEPRLTRVLVRADQDSFNPLTLRFHITATINSEALHEKVQFSLLLDQSRKYRVF”, “not soluble”. The same measure for “MNTKQSNSHSTPSTFEGAQIRQGKASQCKTLMVQGTTSDAGKTTLVAGLCRVFADLQVKVAPFKPQNMALNSAVTPCGGEIGRAQALQAKAARLALDVDFNPILLKPNSDTGAQVIVHGKALMHRSSSNMEASEYQDYKKVAMQAVLSSHQRLTQQYDLVVVEGAGSPAEINLRKGDIANMGFAEAVDCPVLIIADIDKGGVFAQLVGTLMLLSQSEQDRVVGFVINRFRGDIKLLESGLTWLEERTNKPVLGVLPYLHGLDISSEDALVTQQALV”: “not soluble”; for “SLLCIALALGILVKYQNSQDVSSVKPDYFIDKQEDLISLNKDHYEIGIFQENEFDNNKSVSILEQKIQEIDDLNTSLNEQNLSSVEQNLSLEQNQSLEQNFILKDTNLTQDQNLTFNEDIHLNKISKKPKLAIIIDDMANASQVRGLKALNLKLNPSFFPPDKNHSETPKLALKFDFYMVHLPLAAINYNKPELDTLNPNDSKERIFKKIKQIKKDFKDLRYINNHTGSLFTSNEEAMRKLYEVLKNQNIFFVDSKTIGNSKANKIAKELNVPYIQRDVFLDNEDDVNYVKKQLESAVKLTQKKGFVIAIGHPRKNTFKALEQSKDLLKSVDLVYLSEIYGK”: “soluble”; for “MSNPQDDKPIDQEQEAHVILKVKSQDGDEVLFKNKKSAPLKKLMYVYCDRRGLKLDAFAFIFNGARIGGLETPDELDMEDGDVIDACRAMSGGLRANQRQWSYMLFDHNGL”: “not soluble”.
